# Experimental data published in the DeepSol protein solubility set.
# Test: soluble on expression in E. coli; label from the status in PepcDB or PDB records
row,Sequence,soluble on expression in E. coli
1,MNITATSLDSEDELSIKYMDAVDNINILKRYGCDIQHEVDVHTMSFDNSLSLQRYDRIVFNFPHAGSRFFGRELSSRAIESHKELVRGFLENAKEMLEEDGEIHITHKTTYPFSDWGIKKLGKGEGLKLLKKSKFELSHYPGYITKRGSGGRRSDDYFPVDVDPCDLKGFEVLEIYHPSMSDGFVNSVMVARKLTDRLIKYEWCTGTRSLNSLKKTRQTEPDQFNKREINRSGPGQVAEEEEEVVAVMMMMTSLGGGAGGGGGGGGSGGGRFVTYPPPLSVPPSAPQSPNFSGGLRSQPSFLVEQEKYLSELLAERHKLTPFLPVLPHVCRLMNQEILRVTTLLENALSQSRFDHPSPLASGGIFQNSRADMNGWASQFPSERSVSSSPAPNWLNSPGSSSGLIVKRTIRVDIPVDKYPNYNFVGRLLGPRGNSLKRVEASTDCRVLIRGRGSIKDPIKEDMMRGKPGYEHLNEPLHILVEAELPIEIVDARLMQAREILDDLLTPVEETHDFYKKQQLRELALLNGSLREEGSPMSGSISPYNSLGMKRAKTRG,soluble
2,MSLSINIKAVTDDNRAAILDLHVSQNQLSYIESTKVCLEDAKECHYYKPVGLYYEGDLVGFAMYGLFPEYDEDNKNGRVWLDRFFIDERYQGKGLGKKMLKALIQHLAELYKCKRIYLSIFENNIHAIRLYQRFGFQFNGELDFNGEKVMVKELEGGSHHHHHH,soluble
3,MAHHHHHHMYPKNELQVLNILYIIIYSFFVDEEIDNIKDETQEIQAYNYTSLMIPSDVSSENNSDTKHFSVVTISFFILYSENIKQVLNLQESIDIQKIKEKKEKKKKQEVFKDIMCSDIKYEKKIKRKKKKIFENKRSSKKNKNNIRDFINLEKDIIITKTLMYNKKKKLDDIYKYTSKKEKTINNLNKNMIKEAAHMQELLIENFKKTEDLIKVRRGGGKIKKKEKTQRIYIHIYIHIYIHI,not soluble
4,MGSSHHHHHHSQDPNSAAPAAEAPLSHVQQALAELAKPKDDPTRKHVCVQVAPAVRVAIAETLGLAPGATTPKQLAEGLRRLGFDEVFDTLFGADLTIMEEGSELLHRLTEHLEAHPHSDEPLPMFTSCCPGWIAMLEKSYPDLIPYVSSCKSPQMMLAAMVKSYLAEKKGIAPKDMVMVSIMPCTRKQSEADRDWFCVDADPTLRQLDHVITTVELGNIFKERGINLAELPEGEWDNPMGVGSGAGVLFGTTGGVMEAALRTAYELFTGTPLPRLSLSEVRGMDGIKETNITMVPAPGSKFEELLKHRAAARAEAAAHGTPGPLAWDGGAGFTSEDGRGGITLRVAVANGLGNAKKLITKMQAGEAKYDFVEIMACPAGCVGGGGQPRSTDKAITQKRQAALYNLDEKSTLRRSHENPSIRELYDTYLGEPLGHKAHELLHTHYVAGGVEEKDEKK,soluble
5,MTYLEIEGTNHLSGNVTISGAKNAALPLIVSSILAKNEVKINNVPNVADIKTLISLLENLGAKVNFQNNSALLNTNTLNQTIAKYDIVRKMRASILTLGPLLARFGHCEVSLPGGCAIGQRPIDLHLLALEKMGANIQIKQGYVVASGNLKGNEILFDKITVTGSENIIMAAALAKGKTKLLNVAKEPEVVQLCEVLKDAGLEIKGIGTDELEIYGSDGELLEFKEFSVIPDRIEAGTYLCAGAITNSKITLDKVNATHLSAVLAKLHQMGFETLITEDSITLLPAKEIKPVEIMTSEYPGFPTDMQAQFMALALKANGTSIIDERLFENRFMHVSELLRMGADIKLNGHIATIVGGKELNAADVMATDLRASSALILAALAAKGTSKVHRIYHLDRGYENLEEKFKDLGAKITRLEE,not soluble
6,MGSDKIHHHHHHMSCIIPNIYSQPTDTNLWNILLSSGIPRHYQKGEFVFEKDQPSNGLICLKKGKVKVSSFFSEGSEKIFGILVAPALFGETETLDQGPRMVSATALTHVEIVAISGNKTKELIYTYPDIALSIIQSIGVKLRWTTLQAEDLSTQKIEYRLARLLLDFKHYGIFTSKNNDNCLMITHEELAHFIGTARSKVTTYLNEFAHKGLIRLRRGEIRILDTAGLNKYKYTHKSQA,not soluble
7,MPDAVYVFTPKGHIRALPRGATALDFAYAVHSDLGNQCVAVKINNELLPLRTELKSGDIVEVVTAPYSKLEHHHHHH,not soluble
8,MFVDQVKISLKAGDGGNGITAYRREKYVPFGGPAGGDGGKGASVVFEVDEGLRTLLDFRYQRHFKASKGENGQSSNMHGKNAEDLVLKVPPGTIIKNVETDEVLADLVEDGQRAVVAKGGRGGRGNSRFATPRNPAPDFSEKGEPGEELDVSLELKLLADVGLVGFPSVGKSTLLSIVSKAKPKIGAYHFTTIKPNLGVVSTPDQRSFVMADLPGLIEGASDGVGLGHQFLRHVERTKVIVHMIDMSGSEGREPIEDYKVINQELAAYEQRLEDRPQIVVANKMDLPESQDNLNLFKEEIGEDVPVIPVSTITRDNIDQLLYAIADKLEEYKDVDITVEEEESVGINRVLYKHTPSQDKFTISRDDDGAYVVSGNAIERMFKMTDFNSDPAVRRFARQMRSMGIDDALRERGCKNGDIVRILGGEFEFVE,not soluble
9,MAHHHHHHMGGFSSKNMEYYNYASMKLLDRSKYINEEEEEDDYHYCKETDIRETIKKAREIKNCNYKESMDLYIKALKTLKKLKENNSRIYRNVLEFEIRPQEIANSMSLKNSLEKNMYMKKEGDKDYTGGPSNDNQTISINNKIASLYNEIADLCCIHDFIEKSLFYYDKACSYNPSKIDYIYKKGVLFQQMNDTERAINTFKIILSSEPNHIPTLFSLGNLYRYIDNHIALSYFEAILKIEPNNTEVLSLIASCYDNLGKLNEAISYQNKAVQIDPDNFNHKKFAQRLIEMKSHN,not soluble
10,MGSDKIHHHHHHLDGQALKQAVTPYFAGVLHEGLSRLKAEVYQEMEEIRLRAAQPLLLKIGESEWGLTSRGELTKKLPEAINASREDLYRTIASISDNSLYALEEEIRRGFITIPGGHRVGLAGQVIVQAAGIKGIKEFSSICFRLAREKKGCARTILPHIISTGTIVNTLIISPPRCGKTTILRDIARSISTGSSACPPHNIAIIDERSEIAGTHRGLAQLDVGIRSDVLDACPKSWGMMMAIRSLSPQVLIADEIGRKEDVEALQECVNAGVAVICSIHARNLEELSKRPLIKKLLSQGAFRLGVVLSRRNGPGTVEEIIRWD,not soluble
11,MGSSHHHHHHGSLPPREDAARVARFVTHVSDWGALATISTLEAVRGRPFADVLSLSDGPPGAGSGVPYFYLSPLQLSVSNLQENPYATLTMTLAQTNFCKKHGFDPQSPLCVHIMLSGTVTKVNETEMDIAKHSLFIRHPEMKTWPSSHNWFFAKLNITNIWVLDYFGGPKIVTPEEYYNVTVQ,soluble
12,MGSDKIHHHHHHMTGRVVTVFGGSGSIGRQLVALLADQGARVRVAVRDTEKAHFLKPLGQLGQIAPISASVSDAASVKRAVEGADQVVNLVGILAESGRRTFQAVHVDGAATVARASAEAGVDALIHMSALGADEASDANYSKTKALGEKAVREAFPAATILRPSVVFGPDDGFFNLFAGLQRLSPVLPYFTRDGFRRGGSGVCGIDLAGSGGPKFQPVYVGDVARAMIAILDTPALRGKTYELGGPRVYSMKEIMDLVVAVTRRRTLVVPLPFWVARLQGRLLEKLPNPPLTSDQVRLMEVDNVCSGALPGLGDLGIEPEAAEAILPTYLSRFRGLDRHMILRGDGRPPKV,not soluble
13,MGSDKIHHHHHHMNIQQMKYVAAIANNGSFREAAKKLFITQPSLSNSIRELEEELGISLFLRTNKGAFLTEEGMVFLEQAEKVLVQMELLENRYRETVTSERFSISSQHYDFLGEVIAKVLKKYGDQYKDFRVFETTTLKVIEDVKGFHSELGIIYLNEQNSVSIERYLEQANLAYEVISTFNTHIFLGNHHPLAKQKEIHLEELVPYPQVRFNQEGSNFSYFSEDLVEIPEQESVIHTTDRGTLMNLLVETNAYASGSGVVTGFTKKEIRLVPLAPALENRICLLFPKNREISPIGRYFIKELKALFKKEVDTKTFSTKE,not soluble
14,SNAMMIKASTNEFRFCFKQMNKSQHELVLGWIHQPHINEWLHGDGLSNTIKDLHEFLNDGKPWATHWIAYDNEIPFAYLITSEIEKSEEYPDGAVTLDLFICRLDYIGKGLSVQMIHEFILSQFSDTKIVLINPEISNERAVHVYKKAGFEIIGEFIASWHPVPHYKMKLCIEDLKKQRLSA,soluble
15,GSKKRQRFVDKNGRCNVQHGNLGSERAETLMFSEHAVISMRDGKLTLMFRVGNLRNSHMVEAQIRCKLLKSRQTPEGEFLPLDQLELDVGFSTGADQLFLVSPLTICHVIDAKSPFYDLSQRSMQTEQFEVVVILEGIVETTGMTCQARTSYTEDEVLWGHRFFPVISLEEGFFKVDYSQFHATFEVPTPPYSVKEQEEMLLMSSPL,soluble
16,AHHHHHHGSKILVVAPCLLTPFYVYRGPKDKEYKTSSELRKLLAELSDEWFIFLYPCPELLAVGWPRPPMSREVLERLGTRERSKIIADFIGRVLTEEKPEKVVFVGVKGSPTCGVFTTTSSNPDEFPYVAVQEFFYLSKEERLRKYKELTKNFKVINAPGLLFEILMARFPEAIFVEFDKDNIEESIRRIREVVKE,soluble
17,MGHHHHHHSHMALVTVQRSPTPSTTSSPCASEADSGEEECRSQPRSISESFLTVKGAALFLPRGNGSSTPRISHRRNKHAGDLQQHLQAMFILLRPEDNIRLAVRLESTYQNRTRYMVVVSTNGRQDTEESIVLGMDFSSNDSSTCTMGLVLPLWSDTLIHLDGDGGFSVSTDNRVHIFKPVSVQAMWVDRDSRNKHCDVLLVEE,not soluble
18,MANKHHVYWYRHHIVNIIMIVDSKTSDWILIDTGLFYSEAFILKKIRRVLGELIPPKAIILTHGHFDHVGALRPLLQRFPNVPVYAHELELPFLTGQRHYVKPDPSVPGGLMAKLAWLYPYHAYDFSRIICPLPDDGTLPFFTDWRWIHTPGHTEGHVSLFRPSDRFLIAGDAFTTVKQESLLSVLAQKKEIHGPPAYFTPDWELAKTSVETLQKLEPAFAVTGHGQMMEGSSLHSGLKRLISQFEQVAVPDLEHHHHHH,soluble
19,MTNYVKKVSIEDFGCQFLHTAHWNNRLRTTGGRFFPNDRHLDFNPKIYREFGIDIFRKIVRHELCHYHLYIQGKGYQHRDKAFKELLEKVDGLRYTPRVTAVKVNYHHYSCQSCGQVYRRRRRVNLRKFACGYCHGRLIESFLEHHHHHH,not soluble
20,MRKLVIPKYYGRPSIGLALFGCTNRPFYHVCVFPDRALGRRYEGNILEQVGTFDPLPNQKNEKLVALNFGRLKYWIGERNAHISVPVLELLGERRNCLSGLFPIHPKSFIRAKDNRALIADQQLKVAAEAAEAEKVAQEQASTGAAATSHPQ,not soluble
